Source: patent US20230405078A1, “DETECTION AND TREATMENT OF INTESTINAL FIBROSIS” (THE REGENTS OF THE UNIVERSITY OF CALIFORNIA, priority 2020, published 2023)
“Also recorded” adds a separate entry of the source.

How the values were obtained:
[1] = cited from earlier work
[2] = Basic pharmacokinetics of subcutaneous elafin in RD-treated male mice; assay type: in vivo; settings: natural elafin 1 mg/kg subcutaneous
Procedure: FIG. 36. Subcutaneous and oral administration of modified elafin inhibited hyperphagia and hyperglycemia in HFD-treated male mice. (A) Elafin (1 mg/kg) was injected into RD-treated male mice subcutaneously. Tail-vein blood samples were collected for elafin ELISA. This mouse experiment was intended for the determination of basic pharmacokinetics of elafin, but not the determination of physiology of elafin. (B) HFD-treated mice were treated with either oral gavage of Elafin-Eudragit formulation (10 mg/kg) daily or subcutaneous injection of PEG-elafin (3.25 mg/kg) every 48 h for 14 days. Serum elafin levels. (C) Serum leptin levels. (D) Serum IFNγ and IL-1β levels. (E) Daily food consumption. (F) Change in fat mass. (G) Change in body weight over 14 days. (H) Fasting blood glucose levels. Each group consists of 8 mice.

3T3-L1 adipocytes = test: Lipid accumulation and gene expression in 3T3-L1 adipocytes; assay type: cell-based, mouse; settings: 24-h; elafin 10 ng/ml, miRNA mimics 75 ng/ml
From the text: FIG. 34. Immune cell-derived miR181b-5p and miR219-5p induced leptin mRNA expression in 3T3-L1 adipocytes. (A) Mouse serum exosomal miRNA expression was profiled by a PCR array. miR219-5p, miR210-3p, and miR181-5p were undetectable in the serum exosomes of HFD-treated mice without elafin overexpression. These three miRNAs were detected in the serum exosomes of elafin-overexpressing HFD-treated mice only. Each group consists of 6 mice. […] (C) The positive correlation between serum elafin levels and miRNAs (miR181b-5p and miR210-3p, but not miR219-5p) in the men with T2DM. […]
Cell culture experiments. […] Adipocyte lipid accumulation was determined using Oil Red O staining, as described previously.
Quantitative real-time reverse transcription-polymerase chain reaction (RT-PCR) and miRNA PCR array. […] Quantitative PCR reactions were run with Fast Universal PCR master mix (#4352042, ThermoFisher) in a Bio-Rad CFX384 using cataloged primers (ThermoFisher) for human elafin (Hs00160066_m1), human leptin (Hs00174877_m1), mouse Cd36 (Mm00432403_m1), mouse adiponectin (Mm00456425_m1), mouse leptin (Mm00434759_m1), and mouse Tnf (Mm00443258_m1). Relative mRNA quantification was performed by comparing test groups and control group, after normalization with endogenous control gene human 18S (Hs99999901_s1) or mouse Gapdh (Mm99999915_g1).

Elafin: small (6 kDa) human elastase-specific protease inhibitor and antimicrobial peptide; active form SEQ ID NO: 2 (AQEPVKGPVSTKPGSCPIILIRCAMLNPPNRCLKDTDCPGIKKCCEGSCGMACFVPQ; listed as Homo sapiens)
increase of plasma concentration ([1]; 200 mg/person intravenous): > 3000 fold
adverse effects / tolerability ([1]; 200 mg/person): does not cause any adverse effects; also recorded: well tolerated
half-life in circulation [2]: 3 h
lipid accumulation; Cd36 and adiponectin mRNA expression (3T3-L1 adipocytes): affected neither
